Measured values: PMC10798921, “Target-induced hot spot construction for sensitive and selective surface-enhanced Raman scattering detection of matrix metalloproteinase MMP-9”

Legend:
Conditions in all cases: protein: recombinant; label: 13-nm gold nanosphere via DNA1 3' thiol; partial duplex: aptamer 5' part pairs with DNA1; aptamer 3' overhang; DNA1 3' AAA tail
MMP-2 = MMP-2 (human, UniProt P08253 110-660); experiment: SERS nanosensor (aptamer strand displacement); 100 ng/mL; AuNS-2 with DNA2/DTNB present; Assay buffer for MMP-9 in solution not in the material; duplex annealed in 8 mM phosphate, 0.8 mM MgCl2, 20 mM NaCl; cell supernatant assay at 37 C for 2 h
MMP-7 = molecular target: T1, MMP-7 (human, UniProt P09237 95-267); experiment: as above
T1 sequence: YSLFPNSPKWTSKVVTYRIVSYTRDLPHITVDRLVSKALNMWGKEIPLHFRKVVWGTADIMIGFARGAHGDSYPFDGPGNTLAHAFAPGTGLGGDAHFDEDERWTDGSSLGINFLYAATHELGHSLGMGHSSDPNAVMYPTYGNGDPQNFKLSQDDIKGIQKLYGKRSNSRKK

MMP-3 = MMP-3 (human, UniProt P08254 100-477); experiment: as above
MMP-9 = MMP-9 (human, UniProt P14780 107-707); experiment: SERS nanosensor (aptamer strand displacement, AuNS aggregation; UV-vis, DLS, TEM); MMP-9 10 ng/mL (selectivity), 350 ng/mL (UV-vis, DLS, TEM); AuNS-2 with DNA2/DTNB present; Assay buffer for MMP-9 in solution not in the material; duplex annealed in 8 mM phosphate, 0.8 mM MgCl2, 20 mM NaCl; cell supernatant assay at 37 C for 2 h
Sequence of MMP-9 (P14780 107-707): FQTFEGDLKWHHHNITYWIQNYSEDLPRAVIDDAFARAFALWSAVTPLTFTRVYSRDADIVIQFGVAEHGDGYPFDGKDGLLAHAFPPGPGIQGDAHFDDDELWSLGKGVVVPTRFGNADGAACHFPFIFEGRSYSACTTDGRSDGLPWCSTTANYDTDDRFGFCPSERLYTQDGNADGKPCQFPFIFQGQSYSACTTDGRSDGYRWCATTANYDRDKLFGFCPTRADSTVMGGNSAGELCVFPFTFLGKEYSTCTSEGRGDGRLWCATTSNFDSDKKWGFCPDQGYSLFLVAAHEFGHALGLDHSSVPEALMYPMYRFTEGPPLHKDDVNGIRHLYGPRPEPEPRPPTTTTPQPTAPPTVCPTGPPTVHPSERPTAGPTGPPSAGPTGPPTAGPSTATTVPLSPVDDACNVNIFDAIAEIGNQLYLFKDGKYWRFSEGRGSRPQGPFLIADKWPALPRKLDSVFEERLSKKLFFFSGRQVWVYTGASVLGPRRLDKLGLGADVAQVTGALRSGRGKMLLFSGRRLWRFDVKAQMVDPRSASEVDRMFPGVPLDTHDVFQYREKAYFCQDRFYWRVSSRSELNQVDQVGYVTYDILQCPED

Sequence of MMP-2 (P08253 110-660): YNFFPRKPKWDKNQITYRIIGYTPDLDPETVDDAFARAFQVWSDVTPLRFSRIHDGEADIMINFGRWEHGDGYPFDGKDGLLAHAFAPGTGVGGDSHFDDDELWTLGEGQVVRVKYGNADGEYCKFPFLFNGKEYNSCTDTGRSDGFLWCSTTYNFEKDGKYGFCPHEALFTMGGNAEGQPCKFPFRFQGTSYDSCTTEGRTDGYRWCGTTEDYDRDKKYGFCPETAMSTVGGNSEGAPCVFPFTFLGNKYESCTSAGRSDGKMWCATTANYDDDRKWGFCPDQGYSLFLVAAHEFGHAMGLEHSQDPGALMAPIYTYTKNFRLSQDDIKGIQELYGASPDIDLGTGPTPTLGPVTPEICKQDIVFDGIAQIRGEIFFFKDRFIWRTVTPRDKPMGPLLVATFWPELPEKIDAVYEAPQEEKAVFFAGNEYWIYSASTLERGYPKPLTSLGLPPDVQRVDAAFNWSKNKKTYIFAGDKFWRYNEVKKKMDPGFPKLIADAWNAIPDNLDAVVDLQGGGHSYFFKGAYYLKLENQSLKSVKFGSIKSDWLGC
Sequence of MMP-3 (P08254 100-477): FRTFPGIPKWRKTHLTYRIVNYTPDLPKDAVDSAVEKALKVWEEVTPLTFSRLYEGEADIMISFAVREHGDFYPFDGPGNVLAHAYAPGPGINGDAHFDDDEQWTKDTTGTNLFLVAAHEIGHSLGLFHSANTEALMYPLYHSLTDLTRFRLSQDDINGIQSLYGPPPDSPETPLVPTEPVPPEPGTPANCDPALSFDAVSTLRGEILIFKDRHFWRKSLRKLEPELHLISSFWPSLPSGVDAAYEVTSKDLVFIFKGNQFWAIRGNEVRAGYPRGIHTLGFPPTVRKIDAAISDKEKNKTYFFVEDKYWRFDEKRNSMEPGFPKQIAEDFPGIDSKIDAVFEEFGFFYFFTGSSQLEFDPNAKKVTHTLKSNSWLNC

B1: MMP-9 aptamer (annealed to DNA1 on AuNS-1) (mixed)
DNA 1: TCGTATGGCACGGGGTTGGTGTTGGGTTGG
DNA 2: GGTGTGCCATACGAAA
modifications: DNA1 3' ThioMC3-D
binding result (MMP-2): no binding | binding result (MMP-7): no binding | binding result (MMP-3): no binding | binding result (MMP-9): binds
